Experimental data published in the nanobody polyreactivity screen of Harvey et al. (2022).

Assay: yeast display, Sf9 membrane polyspecificity reagent, FACS + sequencing; frameworks hold sequencing errors
Outline: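 After 36–48 hours of galactose induction, yeast (Saccharomyces cerevisiae BJ5465) displaying a synthetic nanobody library were stained at 4 °C for 1 hour with 10% biotinylated, detergent-solubilized Sf9 membrane reagent. Streptavidin microbeads enriched the stained cells before FACS sorting into low and high (top ~1%) gates on anti-HA and streptavidin fluorescence. Each clone's polyreactivity label reflects its gate of origin.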

| Sequence | polyreactivity (PSR sort gate) |
| --- | --- |
| QVQLVESGGGLVQAGGSLRLICAASGFTFSYYAMGWSRQAPGKERELVAANSWSGTSTYYADSVKGRFTISRDNAKNTVYLQMNSLKPEDTAVYYCAAGYSASRKVDYRGQGTQVTVSS | high polyreactivity |
| QVQLVESGGGLVQAGGSLRISCAASGRIFRQNTMGWYRQAPGKERELVAAISRSGGSTYYADSVKGRFTISRENAKNTVYLQMNSLKPEDTAVYYCNKVTYIVAIWGSDIYVPSEFGYWGQGTQVTVSS | high polyreactivity |
| QVQLVESGGGLVQAGGSLRLSCAASGFTFEYYAMGWYRQAPWKERELVATITWNGGSTYYADSVKGRFTISRDNAKNTVYFQMNSLKPEDTAVYYCAADEQAYYVRRFDYWGQGTQVTVSS | low polyreactivity |
| QVQLVESGGGLVQAGGSLRLSCADSGSIFEVYAMGWYRQAAGKERELVAAINYTGGSTYYADSVKGRFTISRDNAKITVYLQMNSLKPEDTAVYYCARDTSGNGTRYDYWGQGTQVTVSS | low polyreactivity |
| QVQLVESGGGLVQAGGSLRLSCAASGRTFWGYGMGWYRQAPGKERELVATISSGGSTYYADSVKGRFTISRDNAKNTVYLQMNSLKPEDTAVYYCAARPPRTYWRYQSDYWGQGTQLTVSS | high polyreactivity |
| QVQIVESGGVLDQAGGSLRLSCAATGSTFAKNAMGWYRQAPGKERELVAAITSGGSTYYADSVKGRFTISRDNAKNTVYLQMYSLKPEDTAVYYCAVDYPWDIFIYWVQNYDHWGHGTQVTVSS | high polyreactivity |
| QVQLVESGGGLVQAGGSLRLSCAASGFTFTYYTMGWYRQAPGKERELVAAISYSGGSTYYADSVKGRFTISRDNAKNTVYLQMNSLKPEDTAVYYCNAVTSWAGSLDYWGQGTQVTVSS | high polyreactivity |
| QVQLVESGGGLVQAGGSLRLSCAASGSIFVSNAMGWYRQAPGKERELVAAITARDVSTYYADSVKGRFTISRDNAKNTVYLQMISLKPEDTAVYYCAGNSSTYPSDDSYVYWGQGTQVTVSS | low polyreactivity |
| QVQLVESGGGLVQAGGSLRLSCAASGRIFGNNVMGWYRQEPGKERELVAAITFSGTSTYYADSVKGRFTISRDNAKNTVYLQMNSLKPEDTAVYYCAKYRYADYYSPGYDYWGQGTQVTVSS | low polyreactivity |
| QVQLVESGGGLVQAGGSLRLSCAASGSTFANYAMGWYRQAPGKERELVAAISRGGNTYYADSVKGRFTISRDNAKNTVYLQMNSLKPEDTAVYYCAARAPRFSRSSQPGDYWGQGTQVTVSS | high polyreactivity |
| QVQLVESGGGLVQAGGSLRLSCAASGSTFYYNDMGWYRQAPGKERELVAAIRTSGSTNYADSVKGRFTISRDYAKNNVYLQMNSLKPEDTAVYYCNAVVRHWFPGWYGRGDDYWGQGTQVTVSS | low polyreactivity |
| QVQLVESGGGLVQAGGSLRLSCAASGGIFAYNAMGWYRQAPGKERELVATISYSGGSTYYADSVKGRFTISRDNAKNTVYLQMNSLKPEDTAVYYCATRLYGWRGRYNYWGQGTQVTVSS | high polyreactivity |
| QVQLVESGGGLVHAGGSHRLSCAASGTMGCYRQAPGKEMELVAAISQSGGSTYYADSVKGRFTISRDNAKNTVYLQMNSLKPEATAVYYCAVDPRYGHPRRDYWGQGTQVTVSS | low polyreactivity |
| QVQLVESGGGLVQAGGSLRLSCAASGYTFSNNAMGWYRQAPGKERELVAAISRSTGSTYYADSVKGRFTISRDNAKNTVYLQMNSLKPEDTAVYYCAAEYYVDKSSWYDYWGQGTQVTVSS | high polyreactivity |
| QVQLVDSAGGLVQAGGSLRLSCDDSGRTFWYYTMGWYRQAPGKEREFLAAIRGSGTSTYYADSVKARYTISRDNAKNTVYFQMNSLKPEDTADYYCAAESPVYHLVTYDYWGQGTQVTVSS | high polyreactivity |
| QVQLVESGGGLVQAGGSLRLSCAASGIIFNDYAMGWYRQAPGKERELVAAISWSGGRTYYADSVKGRFTISRDNAKNTVYLQMNSLKPEDTAVYYCNARARQYSAFPVVERNYWGQGTQVTVSS | high polyreactivity |
| QVQLVESGGGLVQAGGSLRLSCAASGRTFVHNDMGWYRQAPGKERQLVAAINVSDGSTYYADSVKGRFTISRDNAKNTVYFQMNSLKPEDTAVYYCAKASYIIFRFEYRSGYDYWGQGTQVTVSS | low polyreactivity |
| QVQLLESGGGLVQAGGSLLLSCAASGLTFHRYAMGWYRQAPGKERELFAAINYSGGRTYYADSVKGRFTISRDNAKNTVYLQMNSLKPEDSAVYYCAARYLGCDYSGSWWKYYYWGQGTQVTVSS | high polyreactivity |
| QVQLVESGGGIVQAGGSLRLSCAASGRTTSVYAIGWYRQAPGKERELVAAINRSDGGTYYADSVKGRFTISRDNAKNTVYLQMNRLQPEDTAVYYCNAVVLYGWYGRRYSSRLDYWGQGTQVTVSS | high polyreactivity |
| QVQLVESRGGLVQAGGSLRLSCAASGRTIINYAMGCYRQAPRKERELVAAITTGGRTNYADSVKGRFTISRDNAQNTVYLQMNSMKPEDTAVYYCNAVRYYRYYYWGQGTQVTVSS | low polyreactivity |
| QVQLQESGGGLVQAGGSLRQSYAASGYIFPSLAMGWYRQAPGKEREFVAAIGRGSTNNYADSVKGRFTISRDNAKNTAYLQMNSLKPEDTAVYYCAAAASPLNRHLYWGQGTQVTVSS | low polyreactivity |
| QVQLVESGGGLVQAGGSLRLSCAASGIIFWLYAMGWYRQAPGKERELVAAINWSGSTTYYADSVKGRFTISRDNAKNTVYLQMNSLKPEDTAVYYCAASRVRAYYYTSSLRRYYYWGQGTQVTVSS | high polyreactivity |

| Sequence | polyreactivity (PSR sort gate) |
| --- | --- |
| QVQLQESGGGLVQAGGSLRLSCAASGSIFYEFYMGWYRQAPGKERELVAAIANGASTHYADSVKGRFTISRDNSNNTVYLQMSSLKQEDTAVYYCAVNTTSDIDYIYWGQGTQVNVSS | low polyreactivity |
| QVQLVESGGGLVQAGGRLRLSCSASGIILPKYTMGGYRQAPGKERELVAAITRSGGSTYYADSVKGRFTISRDNAKNTVYLHMISMKPEDTAVYYCAAERASFRYQDYYIYDYWGQGTEVTVSS | high polyreactivity |
| QVQLVESGGGLVQAGGSIRLSCAASGFIFFSNAMGWYRQAPGKERELVAVIDRATSTYYADSVKGRFTISRDNAKNTVYLQMNSLKPEDTAVYYCNADGEEVYDFNYFLSFKGDYWGQGTQVTVSS | low polyreactivity |
| QVQLVESGGGLVQAGGSLRLSCAASGRIFQKNAMGWYRQPPGKERELVAAISGSGSTTNYADSVKGRFTISRDNAKNTVDLQMNSLKPEDTAVFYCGTGKRGVSGRGFRYDYWGQGTQVTVSS | high polyreactivity |
| QVQLVESGGGLVQAGGSLRLSCAASGSIFYYYTMGWYRQAPGKERELVAAITWSGGRTYYADSVKGRFTISRDNAKNTVYLQMNSLKPEDTAVYYCNVDPYYGGIGDYWGQGTQVTVSS | high polyreactivity |
| QVQLVESGGGLVQAGGSLRLSCAASGIIFHFNDMGWTTQAPGKERELVAAISRRGSTYYADSVTGRFTISRDNAKNSVYLQMNSLKPEDTAVYYCAKYRGRVKTYNGGYDYWGQGTQVSVSS | low polyreactivity |
| QVQLVESGGGLVQAGGSLRLSCAASGGTFYVNAMGWYRQAPGKERELVAAISYRGGRTYYADSVKGRFTISRDNAKNTVYVQMNSVKPEDTAVYYCAAEYSYDHSTGYDYWGQGTQVTVSS | low polyreactivity |
| QVQLVESGGGLVQAGGSLRLSCAASGSTLRGNAMGWYRQAPGKEREFVAAISSSGGRTYYADSVKGRFTISRDNAKNTVYLQMNSLKPEDTAVYYCNADPYNYSRRYRLRKYGYWGQGTQVTVSS | high polyreactivity |
| QVQLVESGAGLVQAGGSLRLICAASGSTFVKNVMGCYRQAPGKERELVAGITRGGSTYYADSVKGRFTISRDHAKNSVYLQMNSLYPDDTAVYYWAKRYAWELDYWGQGSQVTVSS | high polyreactivity |
| QVQLVESGGGLVQAGGTLRLSCADSGLTFAKYAMGWYRQAPGKERQLVAAISRSGGSTYYADSVKGRFTISRDNAKNTVYLQINSLKPEDTARFYCPKSSGTLWITKYDYWGQGTQVTVSS | low polyreactivity |
| QVQLVESGGGLVQAGGSLRLSCAASGRTFTSNAMRWYRQEPGNERELVAAISNRGTRTYYADSVKGRFTISRDNAKNTVYLQMHILKPEETAVYYCAASERDQRFKHYYWGLGTQVTVSS | high polyreactivity |
| QVQLVESGGGLVHAVGSHRLSCTASGSTFVAYPMGWYRQAPGKERELVAAITSSGGRTYYADSVKGRFTISRDNSKNTVYLQINSLKPEDTAVYYCAAVTHGRYDWGQGTQVTVSS | high polyreactivity |
| QVQLVESGGGLVQAGGSLRLSCAASGTIIYLNAMAWYRQAPGKERELVAAITSGGSTYYADSVKGRFTISRDNAKNTVYVQMNSLKPEDTAVYYCAAFVWSGWGHWFYFWGQGTQVTVSS | high polyreactivity |
| QVQLVESGGGLVQAGGSLRLSCAASGSIFRGYTMGWYRQATGKERELVATISWSGGSTYYADSVKGRFTISRDNAKNTVYLQMNCLKPEDTAVYYCAAVWYLGIPYDYWGQGTQVTVSS | high polyreactivity |
| QVQLVESGGGLVQAGGSLRLSCAASGFIFKYNAMGWYRQAPGKERELVAAISRSGGRTYYADSVKGRFTISRDNAKNTVSLQMNSLKPEDTAVYYCAARVGVSGFEYDYWGQGTQVTVSS | high polyreactivity |
| QVQLVESGGGLVQAGGSLRLSCAASGSTFEAYAMGWYRQAPGKERELVAAITWSSGSTYYADSVKGRFTISRDNAKNTVYLQMNSLKPEDTAVYYCNKDWLAYDSLRVPSTIAFDYWGQGTQVTVSS | low polyreactivity |
| QVQLVESGGGLVQAGGSLRLSCAASGFTFRYYAMGWYRQAPGKERELVAAITRSGGSTSYADSVKGRFTISRDNAKNNVYLQMNSLKPEDTAVYYCNTSTSRVPGNGDYWGQGTQVTVSS | high polyreactivity |
| QVQLVESGGGLVQAGGSLRLSCAASGSTFQSNAMGWYRQAPGKERELVAAITVSAGSTYYADSVKGRFTISRDNAKNTVYLQMNSLKPEDTAVYFCAANRYVYPSYRFDYWGQGTQVTVSS | low polyreactivity |
| QVQLVESGGGLVQAGGSLRLSCAASGSIFHVYGMGWYRQAPGKEREFVADITSRGTRTYYADSVKGRFTISRDNAKNTVYLQMNSLKPEDTAVYYCNTLVGVDFWLVDYWGQVTQVTVSS | low polyreactivity |
| QFQLVESGGGLVHAGGSLRLSCAASGITYWAYSMGWYRQARGKERELVAAIRFRGRTYYADSVKGRFTISRDNAKNSVYLQMNSLKAEDTAVYYFDADLSYWDDFEYWGQGNQVTVSS | low polyreactivity |
| QVQLVESGGGLVQAGGSLRLSCAASGSIFTQYAMGWYREATGKERELVAAITSGGSTYADSVKGRFTISRDNANNTVYLQMNSLKPEDTAVYYCATQYSYRGVTFYYWGQGTQVTVSS | low polyreactivity |
